{"source": "patent US20160068860A1", "about": "“TRANSGENIC PLANTS” (CONSEJO SUPERIOR DE INVESTIGACIONES CIENTIFICAS (CSIC), priority 2013, published 2016)", "key": {"[1]": {"test_system": "HAB1", "experiment": "BiFC assay with HAB1 in N. benthamiana leaves", "format": "cell-based", "settings": "no exogenous ABA", "protocol": "Experiments were performed basically as described by Voinnet et al., (2003). The different binary vectors described above where introduced into Agrobacterium tumefaciens C58C1 (pGV2260) (Deblaere et al., 1985) by electroporation and transformed cells were selected in LB plates supplemented with kanamycin (50 μg/ml). Then, they were grown in liquid LB medium to late exponential phase and cells were harvested by centrifugation and resuspended in 10 mM morpholinoethanesulphonic (MES) acid-KOH pH 5.6 containing 10 mM MgCl2 and […] acetosyringone to an OD600 nm of 1. These cells were mixed with an equal volume of Agrobacterium C58C1 (pCH32 35S:p19) expressing the silencing suppressor p19 of tomato bushy stunt virus (Voinnet et al., 2003) so that the final density of Agrobacterium solution was about 1. Bacteria were incubated for 3 h at room temperature and then injected into young fully expanded leaves of 4-week-old N. benthamiana plants. Leaves were examined after 3-4 days under a Leica TCS-SL confocal microscope and laser scanning confocal imaging system. Quantification of fluorescent protein signal was done as described (Gampala et al., 2007) using the National Institutes of Health (NIH) Image software ImageJ v1.37. […]"}, "[2]": {"biological_target": "PP2CA (Arabidopsis thaliana, UniProt O80920+P49598, A194T)", "sequence (P49598 whole entry, one chain of several)": "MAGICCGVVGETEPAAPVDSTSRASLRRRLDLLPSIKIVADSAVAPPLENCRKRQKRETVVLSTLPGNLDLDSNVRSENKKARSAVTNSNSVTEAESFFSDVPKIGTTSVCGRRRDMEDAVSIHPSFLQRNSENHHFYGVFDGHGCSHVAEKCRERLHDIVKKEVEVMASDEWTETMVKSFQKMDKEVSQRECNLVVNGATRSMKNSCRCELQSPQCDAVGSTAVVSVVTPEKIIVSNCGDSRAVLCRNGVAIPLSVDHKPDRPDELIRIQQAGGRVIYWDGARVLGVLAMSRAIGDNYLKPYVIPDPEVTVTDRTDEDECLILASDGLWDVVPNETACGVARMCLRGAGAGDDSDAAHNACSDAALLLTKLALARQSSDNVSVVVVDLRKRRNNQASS", "experiment": "In vitro reconstitution: PP2CA-mediated dephosphorylation of OST1, ΔC-ABF2, ΔC-ABI5, SLAC1 1-186", "format": "biochemical", "set-up": "made in house; host or cells: E. coli BL21 (DE3)", "protocol": "Phosphatase activity was measured using as a substrate either pNPP or phosphorylated ΔC-ABF2, ΔC-ABI5 and SLAC11-186 proteins. For the pNPP substrate, assays were performed in a 100 μl solution containing 25 mM Tris-HCl pH 7.5, 2 mM MnCl2 and 5 mM pNPP. Assays contained 2 μM phosphatase (PP2CA or HAB1), 4 μM receptor and the indicated concentrations of ABA. Phosphatase activity was recorded with a ViktorX5 reader at 405 nm every 60 seconds over 30 minutes and the activity obtained after 30 minutes is indicated in the graphics. In order to obtain phosphorylated ΔCABF2, ΔC-ABI5 and SLAC11-186 proteins, OST1 phosphorylation assays were done basically as described previously (Dupeux et al., 2011 b). ΔC-ABF2 and SLAC11-186 N-terminal fragments were prepared as described (Antoni et al., 2012; Vahisalu et al., 2010). ΔC-ABI5 recombinant protein (amino acid residues 1-200, containing the C1, C2 and C3 target sites of ABA-activated SnRK2s) was expressed in the pETM11 vector as described above. The reaction mixture containing the OST1 kinase and either ΔCABF2, ΔC-ABI5 or SLAC11-186 recombinant proteins were incubated for 50 min at room temperature in 30 μl of kinase buffer: 20 mM Tris-HCl pH 7.8, 20 mM MgCl2, 2 mM MnCl2, and 3.5 μCi of γ-32ATP (3000 Ci/mmol). Thus, OST1 was autophosphorylated and in turn it phosphorylated ΔC-ABF2, ΔC-ABI5 and SLAC11-186 proteins. […] The reaction was stopped by adding Laemmli buffer and the proteins were separated by SDS-PAGE using an 8% acrylamide gel and transferred to an Immobilon-P membrane (Millipore). Radioactivity was detected and quantified using a Phosphorimage system (FLA5100, Fujifilm). After scanning, the same membrane was used for Ponceau staining. The data presented are averages of at least three independent experiments."}, "[3]": {"settings": "30 μM ABA, 1:10 phosphatase:receptor"}}, "data": [{"molecule": "PYL4A194T: AtPYL4 ABA receptor mutant polypeptide with A194T substitution (SEQ ID NO. 60; nucleic acid SEQ ID NO: 55); also over-expressed in plants (protein, listed as Arabidopsis thaliana) MLAVHRPSSAVSDGDSVQIPMMIASFQKRFPSLSRDSTAARFHTHEVGPNQCCSAVIQEISAPISTVWSVVRRFDNPQAYKHFLKSCSVIGGDGDNVGSLRQVHVVSGLPAASSTERLDILDDERHVISFSVVGGDHRLSNYRSVTTLHPSPISGTVVVESYVVDVPPGNTKEETCDFVDVIVRCNLQSLAKITENTAAESKKKMSL", "values": [{"measurement": "interaction with HAB1 (BiFC), PYL4 versus PYL4A194T", "setting": "[1]", "value": "did not differ significantly"}, {"measurement": "inhibition of dephosphorylation by PP2CA of ΔC-ABI5 and SLAC1 1-186", "setting": "[2]; [3]", "value": "inhibited better than PYL4"}, {"measurement": "inhibition of dephosphorylation of ΔC-ABF2", "setting": "[2]; [3]", "value": "not more effective than PYL4"}, {"measurement": "inhibition of dephosphorylation of ΔC-ABF2, ΔC-ABI5 and SLAC1 1-186, better than PYL4", "setting": "[2]; 0.5-1 μM ABA, 1:1 phosphatase:receptor ratio", "value": "2-3 fold"}, {"measurement": "inhibition of dephosphorylation of PP2CA targets, difference to PYL4", "setting": "[2]; absence of ABA, 1:10 phosphatase:receptor", "value": "did not find significant differences"}, {"measurement": "protection of OST1 phosphorylation compared to PYL4", "setting": "[2]; low ABA concentrations, 1:1 phosphatase:receptor ratio", "value": "improved"}]}]}
